B1: SEQID-00511: protein of the 168 nutritive polypeptide library (protein)
chain: MVLFGFGKKKSLPKPEEALPGRDRVMSVPDRHYINGNPLKPPFPEGMEQAVFGLGCFWGAERKFWQQQGVFSTAVGYAGGYTKNPTYEEVCSGMTGHTEVVLVVFDPKVISYTDLLKLFWESHNPTQGMRQGNDTGTQYRSAIYTYSDEQQRLALASRDRYQQALSAASYGEITTEIAPAQEFYYAEAYHQQYLGKNPNGYCGLGGTGVGCPAMTETSV
modifications: Arthrospira platensis C1
notes: protein of the 168 nutritive polypeptide library
B2: SEQID-00605: nutritive polypeptide naturally produced in Mushroom, recombinantly expressed in E. coli (protein, listed as Agaricus bisporus)
chain: MLEFTLNDGNRIPAIAFGTGTALYNQDASAFVRLAIETGITHLDGAQMYENEETLGKGIKSSGKPRSELFITTKLHILKPGQTVRETLVESLGKIGVDYVDLFLIHDPTANRKEATLSEIWSQLEALKNEGLTKSIGVSNFKVEDLNEILPGAKIIPAVNQIEFHPYVLKAASPIIELCKAKGIIVASYGGQTPIVRATDGPLKDLLPKIRERLEQTRGSPVTEGQVLTKWLLQKNVIAISTSSKESRIKEFLSTVDVPDLTKQEIESIDNAGSTIHKRIYMKHIFNE
modifications: var. bisporus; strain H97 / ATCC MYA-4626 / FGSC 10389
notes: nutritive polypeptide naturally produced in Mushroom, recombinantly expressed in E. coli
B3: SEQID-00502: protein of the 168 nutritive polypeptide library (protein)
chain: MASQSNTKSVHDFTVKDARGNNVNLADYKGKVLLIVNVASQCGLTNSNYTELNQLYEKYKGKGLEILAFPCNQFGAQEPGTNEEIVEFACTRFKAEFPIFDKVDVNGDNAAPLYKFLKSSKGGLFGDSIKWNFSKFLVDKDGNVVDRYAPTTSPLSIEKDIKKLLDA
modifications: Glycine max
notes: as for B1
B4: SEQID-00601: protein of the 168 nutritive polypeptide library (protein, listed as Agaricus bisporus)
chain: MTRSWEPGTQYNLGDVVEYNGDEYKIIQAHSSQSDWAPDRTPALWGKLPHRHHQQGQYQQQQECQPQQPQKTCYDYGKQEQAPQHSDSKEKKNWFGNITESQKQALEVGGGVALGAGLLGGAFAAWKHHQHKEEAHDSFEAWANAARSRAEEFRAKGPQGPATWVYNEGKHIPEQAILVGTEHNWNLYICRAYCDGGVQIGKASDVFKKGAVIGYKEDEHHLDKYEILLGDMRGLKWVQTGNSLDLASLGATPVEGGYENDHTRLYIARAFHKGAKHPGKVSERLDGAYIPYDGKEKCVKEYEVLCYL
modifications: var. bisporus; strain H97 / ATCC MYA-4626 / FGSC 10389
notes: as for B1
B5: SEQID-00647: protein of the 168 nutritive polypeptide library (protein)
chain: MALSKIEEARQLNDDDLSEQILEIKKQLANLRLLKATGRLEKPHEIRHTRHRLSQLLTVERERQLPNQSPA
modifications: Arthrospira platensis C1
notes: as for B1
B6: SEQID-00606: protein of the 168 nutritive polypeptide library (protein)
chain: MASEGDHHHHHHHHQDHDHHHHDHDHHHHHDGEGETNSWVGKDGKVYHSHDGLAPHSHEPIYSPGYFTRRAPPLLNRNFNERAFTVGIGGPVGTGKTALMLALCELLRENYSLAAVTNDIFTKEDGEFLVKHKALPEERIRAVETGGCPHAAIREDISINLGPLEELSNLFKADILLCESGGDNLAANFSRELADYIIYIIDVSGGDKIPRKGGPGITQADLLVINKTDLAPAIGADLAVMQRDALRMRDGGPFVFAQVKHKIGVEEIGNLVLQAWEAATGNKRH
modifications: Glycine max
notes: as for B1

Assays:
[1] = Intact half-life during simulated gastric fluid (SGF) digestion; conditions: for SGF Half-life (t½): SGF pH 1.5, pepsin:polypeptide 1:20 w/w, 37° C., produced in E. coli unless otherwise noted; for Half-life: purified proteins, chip electrophoresis, SGF
[2] = Thermostability, ProteoStat Thermal Shift Stability Kit, temperature of aggregation; format: physicochemical
Protocol: Thermostability. The thermostability of proteins in a buffer cocktail of Citric Acid and Dibasic Sodium Phosphate over a pH range of 2.8 to 7.1 (preparation described above in Table E31B) was determined using the ProteoStat® Thermal Shift Stability Kit (Enzo Life Sciences) according to the manufacturer's standard protocol. Briefly, protein solutions (˜10 mg/ml) containing 1× ProteoStat TS Detection Reagent were heated from 25° C. to 95° C. at a rate of 0.5° C. per 30 sec using a real-time PCR (rtPCR) thermocycler (BioRad) equipped with a plate reader (SynergyMx, Biotek) while monitoring the fluorescence with a Texas Red filter.

[3] = pH solubility screen in Citric Acid / Dibasic Sodium Phosphate buffers; format: physicochemical; conditions: for pH Range where Protein is >80% detected as Soluble and A650 <1 OD: Low: lower pH of range; for pH Range where Protein is >80% detected as Soluble and A650 <1 OD: High: upper pH of range
Protocol: pH Solubility. […] Protein was either lyophilized and then resuspended in buffer cocktail mixtures, or concentrated and then spiked into buffer cocktail mixtures at a final protein concentration of 5 to 30 mg/ml. As a control, protein was also dissolved in a solution of 8 M urea. Protein solutions were shaken for 10 min at room temperature. Turbidity of proteins was determined by measuring the absorbance of protein solutions at 650 nm. The protein solution was then centrifuged for 10 min at 1100×g to pellet undissolved or precipitated protein. The soluble protein fraction (supernatant) was sampled and protein concentration was measured by one or more of the following methods: Coomassie Plus Protein Assay (Pierce), Chip electrophoresis, gel electrophoresis, and/or absorbance at 280 nm. The pH range over which select proteins remained greater than 80% soluble as determined by Bradford and the A650 value are listed in Table E31C.

[4] = SGF digest of the 168 nutritive polypeptide library, intact protein by LC-MS/MS spectral counts; format: in vitro ADME; conditions: proteins detected in the 168 nutritive polypeptide library
Protocol: Nutritive polypeptide intact half-life determination in a complex mixture. The in vitro intact half-life of multiple polypeptides in a complex mixture was determined using the simulated gastric in vitro digestion described above. Briefly, the 168 nutritive polypeptide library was generated as described herein by cloning, transforming, and expressing a gene library encoding 168 proteins as a single mixture. The recombinantly expressed proteins were purified from host cell proteins by IMAC purification as described herein.
The 168 Protein Library was treated with SGF as described above and the t=0 and t=10 min samples were analyzed for intact protein by LC-MS/MS. To begin, 10 μg of sample was loaded onto a 10% SDS-PAGE gel (Invitrogen) and run approximately 5 cm into the gel. The gel was excised into ten fractions from 100 kD to the dye front and the gel slices were processed by washing with 25 mM ammonium bicarbonate, followed by acetonitrile. Gel fractions were then reduced with 10 mM dithiothreitol at 60° C., followed by alkylation with 50 mM iodoacetamide at room temperature. Finally, the samples were digested with trypsin (Promega) at 37° C. for 4 h and the digestions were quenched with the addition of formic acid. The samples were then analyzed by nano LC/MS/MS using an EasynLC 1000 HPLC system interfaced to a ThermoFisher Q Exactive. Peptides were loaded on a trapping column and eluted over a 75 μm analytical column at 350 nL/min; both columns were packed with PepMap C18 3 μm resin (ThemoFisher). A 1 hour gradient was employed. The mass spectrometer was operated in data-dependent mode, with MS and MS/MS performed in the Orbitrap at 70,000 FWHM resolution and 17,500 FWHM resolution, respectively. The fifteen most abundant ions were selected for MS/MS. Data were searched against an appropriate database using Mascot to identify peptides. Mascot DAT files were parsed into the Scaffold software for validation, filtering and to create a nonredundant list per sample. Data were filtered at 1% protein and peptide false discovery rate (FDR) and requiring at least two unique peptides per protein. A full list of detected proteins and their spectral counts (SpC) was generated and reported as a function of each collected gel fraction. SpC are a count of the number of spectra identified for a given protein and are used as a measure of relative protein abundance (Liu, H. et al., Analytical Chemistry 2004, 76:4193-4201). To calculate the percentage of intact protein remaining at the 10 min time point of the SGF digest the number of SpC representative of intact peptide in the t=10 min sample were divided by the number of SpC representative of intact peptide in the t=0 min sample. The number of SpC representative of intact peptide was defined as the sum of the SpC in the fraction with the highest number of SpC assigned to that protein in the t=0 min sample and the two flanking fractions.

[5] = heated 25° C. to 95° C., NS = protein not soluble

Row | Molecule | SGF Half-life (t½) [1] [s] | Half-life [1] [s] | Tagg pH 6.0 ([2]; NS = protein not soluble) | Tagg pH 6.5 ([2]; NS = protein not soluble) | Tagg (pH 7.1) [2, 5] | pH Range where Protein is >80% detected as Soluble and A650 <1 OD: Low [3] | pH Range where Protein is >80% detected as Soluble and A650 <1 OD: High [3] | % Remaining at 10 min [4] [%] | Tagg pH 4.6 ([2]; NS = protein not soluble) | Tagg pH 5.0 ([2]; NS = protein not soluble) | Tagg pH 5.6 ([2]; NS = protein not soluble) | Tagg pH 2.8 ([2]; NS = protein not soluble) | Tagg pH 3.7 ([2]; NS = protein not soluble) | Tagg pH 4.3 ([2]; NS = protein not soluble) | pH Range where Protein is >80% detected as Soluble and A650 <1 OD: Other ([3]; other pH where soluble) | Tagg (pH 7.1) ([2]; heated from 25° C. to 95° C.)
1 | B1 | 18 | 18 | 39.5 | 45.5 | 42 | 5.6 | 7.1 | 4.3 | – | – | – | – | – | – | – | –
2 | B2 | 12 | 6 | 44.5 | 38.5 | 39 | 5.6 | 7.1 | 0 | 40.5 | 33.5 | 37 | – | – | – | – | –
3 | B3 | 36 | 36 | 76.5 | 78.5 | 95 | 7.1 | – | 9.7 | 95 | 77 | 77 | 95 | 95 | 95 | 2.8 | –
4 | B4 | 12 | 12 | – | 45.5 | 48.5 | – | – | 1.1 | – | – | – | 95 | 95 | 95 | – | –
5 | B5 | 12 | 12 | – | – | – | – | – | 12 | – | – | – | – | – | – | – | –
6 | B6 | 18 | 18 | – | – | – | – | – | 0 | – | – | – | – | – | – | – | 95

— patent US20260069656A1, “Nutritive Polypeptides and Formulations Thereof, and Methods of Production and Use Thereof” (Axcella Health Inc., priority 2013, published 2026)
